These results are taken from patent US20260116960A1 (SHANGHAI HONGCHENG BIOPHARMACEUTICAL, published 2026).

Assay [1] has as its target T1, human CTLA-4 on the cell surface (human, UniProt P16410 36-223).
T1 construct: whole, on cells; also called CHO-hCTLA-4 cells; CHOK1-hCTLA4 cells
The assay is described as follows: flow cytometry competition, CHO-hCTLA-4 cells, biotin-human CD80. Here is the method: CHO-hCTLA-4 cells were obtained by trypsin digestion, washed twice with PBS containing 2% FBS (FACS buffer), and resuspended in FACS buffer. 200 μL of the cells were added to a 96-well U-bottom plate, approximately 2×10⁵ cells/well. After centrifugation at 300 g for 5 minutes, the supernatant was discarded. […] After washing three times with FACS buffer, 100 μL/well of 1:800 diluted PE Streptavidin was added and incubated at 4° C. for 50 min. After washing three times with FACS buffer, 150 μL/well of PBS was added to resuspend the cells, and the fluorescence signal was detected on a flow cytometer (BECKMAN COULTER cytoFLEX). The four-parameter model was used to fit the binding activity and the IC₅₀ value of the blocking activity of each antibody was calculated.
For orientation: In flow cytometry, cells or beads pass a laser one at a time.

Assay [2] addresses T2, human PD-1 on the cell surface (human, UniProt Q15116 25-288).
T2 construct: whole, on cells; also called cell surface PD-1
The assay is described as follows: flow cytometry, 293T-hPD-1 cells, batch FACS#2. Here is the method:
After centrifugation at 300 g for 5 minutes, the supernatant was discarded. The antibodies were serially diluted 3-fold with FACS buffer to obtain two gradient series solution FACS #1 and FACS #2, with the starting concentration of 200 nM (Table 5, FACS #1) or 100 nM (Table 5, FACS #2, FIG. 2), respectively. Then 100 μL/well was added to a 96-well plate in triplicate, mixed, and incubated at 4° C. for 60 min. The plate was centrifuged and washed three times with FACS buffer. 100 μL/well of 1:800 diluted AF647-anti-hIgG(H+L) (Jackson, Catalog No.: 109-605-003) was added and incubated at 4° C. for 50 minutes. After washing the plate three times with FACS buffer, 100 μL/well of FACS buffer was added to resuspend the cells, and the fluorescence signal was detected on a flow cytometer (BECKMAN COULTER cytoFLEX). The binding activity was fitted using a four-parameter model to calculate the EC₅₀ value of each antibody binding to PD-1.

Assay [3] concerns the target T1, human CTLA-4 on the cell surface. Nature of the assay: flow cytometry, CHO-hCTLA-4 cells, batch FACS#4.

T1 sequence (P16410 36-223): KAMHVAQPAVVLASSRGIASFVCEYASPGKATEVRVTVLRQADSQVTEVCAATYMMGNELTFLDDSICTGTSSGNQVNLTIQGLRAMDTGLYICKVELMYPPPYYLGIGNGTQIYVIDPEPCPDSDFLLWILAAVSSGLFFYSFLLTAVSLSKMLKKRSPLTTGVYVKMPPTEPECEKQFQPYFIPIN
T2 sequence (Q15116 25-288): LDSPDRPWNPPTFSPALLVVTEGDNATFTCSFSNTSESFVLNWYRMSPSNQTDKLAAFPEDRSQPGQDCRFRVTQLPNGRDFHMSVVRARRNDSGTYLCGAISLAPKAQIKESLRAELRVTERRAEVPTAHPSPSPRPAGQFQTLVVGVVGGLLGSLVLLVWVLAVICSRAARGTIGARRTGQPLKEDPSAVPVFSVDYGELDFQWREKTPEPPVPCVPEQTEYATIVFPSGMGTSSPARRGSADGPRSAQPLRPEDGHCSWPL

B1: HC010-F10 (trispecific antibody, human IgG4 S228P, kappa)
heavy: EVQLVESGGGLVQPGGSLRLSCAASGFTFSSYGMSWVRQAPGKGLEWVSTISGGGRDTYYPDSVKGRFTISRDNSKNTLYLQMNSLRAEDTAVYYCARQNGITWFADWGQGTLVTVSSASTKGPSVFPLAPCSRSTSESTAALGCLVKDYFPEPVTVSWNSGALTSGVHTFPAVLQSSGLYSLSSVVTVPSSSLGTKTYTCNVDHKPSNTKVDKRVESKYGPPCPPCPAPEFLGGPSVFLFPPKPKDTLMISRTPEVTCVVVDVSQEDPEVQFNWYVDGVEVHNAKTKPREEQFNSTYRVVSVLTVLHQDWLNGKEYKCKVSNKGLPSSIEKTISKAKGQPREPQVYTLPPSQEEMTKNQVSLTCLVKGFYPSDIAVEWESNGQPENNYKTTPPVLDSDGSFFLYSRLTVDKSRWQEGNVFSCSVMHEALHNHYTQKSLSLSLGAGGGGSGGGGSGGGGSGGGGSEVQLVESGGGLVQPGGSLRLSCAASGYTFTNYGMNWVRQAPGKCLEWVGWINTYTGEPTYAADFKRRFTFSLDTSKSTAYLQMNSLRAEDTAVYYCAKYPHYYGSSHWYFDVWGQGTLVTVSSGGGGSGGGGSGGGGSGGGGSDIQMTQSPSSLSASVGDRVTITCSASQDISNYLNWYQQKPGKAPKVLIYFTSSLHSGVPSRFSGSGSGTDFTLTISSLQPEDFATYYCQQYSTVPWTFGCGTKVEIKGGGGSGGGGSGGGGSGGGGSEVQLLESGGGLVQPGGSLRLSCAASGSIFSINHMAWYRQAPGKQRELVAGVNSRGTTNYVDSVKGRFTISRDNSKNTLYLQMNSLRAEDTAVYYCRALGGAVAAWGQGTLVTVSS
light: DIQMTQSPSSLSASVGDRVTITCRASESVDNYGISFMNWYQQKPGKAPKLLIYAASNQGSGVPSRFSGSGSGTDFTLTISSLQPEDFATYYCQQSKEVPWTFGGGTKVEIKRTVAAPSVFIFPPSDEQLKSGTASVVCLLNNFYPREAKVQWKVDNALQSGNSQESVTEQDSKDSTYSLSSTLTLSKADYEKHKVYACEVTHQGLSSPVTKSFNRGEC
notes: light: CQ1-3/1-11 VL-kappa; also called H010-F10
In general, IC50 refers to the concentration that gives 50% inhibition. Read a low IC50 as greater potency. One may read the EC50 as the concentration at which the effect is half-maximal. A low value points to greater potency. Turning to B1, in assay [1], the half-inhibitory concentration (IC50) amounted to 22.6 nM. The figures for the concentration for a half-maximal effect (EC50) in assay [2] and in assay [3] were 2.37 nM and 4.86 nM, respectively.
